{
  "source": "paper PMC12416549",
  "about": "(2024)",
  "data": [
    {"molecular_target": "T1, TNFR1 (Homo sapiens, UniProt P19438)", "T1 chain": "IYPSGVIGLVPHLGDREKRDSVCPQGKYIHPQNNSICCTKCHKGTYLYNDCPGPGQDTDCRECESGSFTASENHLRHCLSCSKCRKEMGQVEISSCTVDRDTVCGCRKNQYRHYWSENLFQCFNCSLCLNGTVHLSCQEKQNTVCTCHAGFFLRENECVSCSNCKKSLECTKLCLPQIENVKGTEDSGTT", "experiment": "yeast display SC50", "units": {"apparent Kd (screen)": "pM"}, "values": [
      {"binder": "I21C (designed binder) SMEEEVEKAAKEYEKKKKEACEKHLEKLKAKDKEAAERFLKELEEAAKEYAKDEAKTMSEEEAKRRAKKYKEKVLLSELSEEEQKEIKEAEEKLVRTILKYVEEAAK", "apparent Kd (screen)": 490},
      {"binder": "K85T (designed binder) SMEEEVEKAAKEYEKKKKEAIEKHLEKLKAKDKEAAERFLKELEEAAKEYAKDEAKTMSEEEAKRRAKKYKEKVLLSELSEEEQTEIKEAEEKLVRTILKYVEEAAK", "apparent Kd (screen)": 490},
      {"binder": "L40Y (designed binder) SMEEEVEKAAKEYEKKKKEAIEKHLEKLKAKDKEAAERFYKELEEAAKEYAKDEAKTMSEEEAKRRAKKYKEKVLLSELSEEEQKEIKEAEEKLVRTILKYVEEAAK", "apparent Kd (screen)": 869},
      {"binder": "E72Q (designed binder) SMEEEVEKAAKEYEKKKKEAIEKHLEKLKAKDKEAAERFLKELEEAAKEYAKDEAKTMSEEEAKRRAKKYKQKVLLSELSEEEQKEIKEAEEKLVRTILKYVEEAAK", "apparent Kd (screen)": 2050},
      {"binder": "E45Q (designed binder) SMEEEVEKAAKEYEKKKKEAIEKHLEKLKAKDKEAAERFLKELEQAAKEYAKDEAKTMSEEEAKRRAKKYKEKVLLSELSEEEQKEIKEAEEKLVRTILKYVEEAAK", "apparent Kd (screen)": 1050},
      {"binder": "K33I (designed binder) SMEEEVEKAAKEYEKKKKEAIEKHLEKLKAKDIEAAERFLKELEEAAKEYAKDEAKTMSEEEAKRRAKKYKEKVLLSELSEEEQKEIKEAEEKLVRTILKYVEEAAK", "apparent Kd (screen)": 790},
      {"binder": "E83P (designed binder) SMEEEVEKAAKEYEKKKKEAIEKHLEKLKAKDKEAAERFLKELEEAAKEYAKDEAKTMSEEEAKRRAKKYKEKVLLSELSEEPQKEIKEAEEKLVRTILKYVEEAAK", "apparent Kd (screen)": 3300},
      {"binder": "T97E (designed binder) SMEEEVEKAAKEYEKKKKEAIEKHLEKLKAKDKEAAERFLKELEEAAKEYAKDEAKTMSEEEAKRRAKKYKEKVLLSELSEEEQKEIKEAEEKLVREILKYVEEAAK", "apparent Kd (screen)": 1690},
      {"binder": "H24R (designed binder) SMEEEVEKAAKEYEKKKKEAIEKRLEKLKAKDKEAAERFLKELEEAAKEYAKDEAKTMSEEEAKRRAKKYKEKVLLSELSEEEQKEIKEAEEKLVRTILKYVEEAAK", "apparent Kd (screen)": 1050},
      {"binder": "E60S (designed binder) SMEEEVEKAAKEYEKKKKEAIEKHLEKLKAKDKEAAERFLKELEEAAKEYAKDEAKTMSSEEAKRRAKKYKEKVLLSELSEEEQKEIKEAEEKLVRTILKYVEEAAK", "apparent Kd (screen)": 1540},
      {"binder": "E22H (designed binder) SMEEEVEKAAKEYEKKKKEAIHKHLEKLKAKDKEAAERFLKELEEAAKEYAKDEAKTMSEEEAKRRAKKYKEKVLLSELSEEEQKEIKEAEEKLVRTILKYVEEAAK", "apparent Kd (screen)": 539},
      {"binder": "K107N (designed binder) SMEEEVEKAAKEYEKKKKEAIEKHLEKLKAKDKEAAERFLKELEEAAKEYAKDEAKTMSEEEAKRRAKKYKEKVLLSELSEEEQKEIKEAEEKLVRTILKYVEEAAN", "apparent Kd (screen)": 1540},
      {"binder": "K23M (designed binder) SMEEEVEKAAKEYEKKKKEAIEMHLEKLKAKDKEAAERFLKELEEAAKEYAKDEAKTMSEEEAKRRAKKYKEKVLLSELSEEEQKEIKEAEEKLVRTILKYVEEAAK", "apparent Kd (screen)": 869},
      {"binder": "V95K (designed binder) SMEEEVEKAAKEYEKKKKEAIEKHLEKLKAKDKEAAERFLKELEEAAKEYAKDEAKTMSEEEAKRRAKKYKEKVLLSELSEEEQKEIKEAEEKLKRTILKYVEEAAK", "apparent Kd (screen)": 3630},
      {"binder": "K11S (designed binder) SMEEEVEKAASEYEKKKKEAIEKHLEKLKAKDKEAAERFLKELEEAAKEYAKDEAKTMSEEEAKRRAKKYKEKVLLSELSEEEQKEIKEAEEKLVRTILKYVEEAAK", "apparent Kd (screen)": 490},
      {"binder": "A47R (designed binder) SMEEEVEKAAKEYEKKKKEAIEKHLEKLKAKDKEAAERFLKELEEARKEYAKDEAKTMSEEEAKRRAKKYKEKVLLSELSEEEQKEIKEAEEKLVRTILKYVEEAAK", "apparent Kd (screen)": 490},
      {"binder": "L76M (designed binder) SMEEEVEKAAKEYEKKKKEAIEKHLEKLKAKDKEAAERFLKELEEAAKEYAKDEAKTMSEEEAKRRAKKYKEKVLMSELSEEEQKEIKEAEEKLVRTILKYVEEAAK", "apparent Kd (screen)": 869},
      {"binder": "M2W (designed binder) SWEEEVEKAAKEYEKKKKEAIEKHLEKLKAKDKEAAERFLKELEEAAKEYAKDEAKTMSEEEAKRRAKKYKEKVLLSELSEEEQKEIKEAEEKLVRTILKYVEEAAK", "apparent Kd (screen)": 446},
      {"binder": "E5T (designed binder) SMEETVEKAAKEYEKKKKEAIEKHLEKLKAKDKEAAERFLKELEEAAKEYAKDEAKTMSEEEAKRRAKKYKEKVLLSELSEEEQKEIKEAEEKLVRTILKYVEEAAK", "apparent Kd (screen)": 446},
      {"binder": "E44V (designed binder) SMEEEVEKAAKEYEKKKKEAIEKHLEKLKAKDKEAAERFLKELVEAAKEYAKDEAKTMSEEEAKRRAKKYKEKVLLSELSEEEQKEIKEAEEKLVRTILKYVEEAAK", "apparent Kd (screen)": 446},
      {"binder": "K85R (designed binder) SMEEEVEKAAKEYEKKKKEAIEKHLEKLKAKDKEAAERFLKELEEAAKEYAKDEAKTMSEEEAKRRAKKYKEKVLLSELSEEEQREIKEAEEKLVRTILKYVEEAAK", "apparent Kd (screen)": 593},
      {"binder": "S59Q (designed binder) SMEEEVEKAAKEYEKKKKEAIEKHLEKLKAKDKEAAERFLKELEEAAKEYAKDEAKTMQEEEAKRRAKKYKEKVLLSELSEEEQKEIKEAEEKLVRTILKYVEEAAK", "apparent Kd (screen)": 1160},
      {"binder": "K29R (designed binder) SMEEEVEKAAKEYEKKKKEAIEKHLEKLRAKDKEAAERFLKELEEAAKEYAKDEAKTMSEEEAKRRAKKYKEKVLLSELSEEEQKEIKEAEEKLVRTILKYVEEAAK", "apparent Kd (screen)": 539},
      {"binder": "E103N (designed binder) SMEEEVEKAAKEYEKKKKEAIEKHLEKLKAKDKEAAERFLKELEEAAKEYAKDEAKTMSEEEAKRRAKKYKEKVLLSELSEEEQKEIKEAEEKLVRTILKYVNEAAK", "apparent Kd (screen)": 490},
      {"binder": "A20I (designed binder) SMEEEVEKAAKEYEKKKKEIIEKHLEKLKAKDKEAAERFLKELEEAAKEYAKDEAKTMSEEEAKRRAKKYKEKVLLSELSEEEQKEIKEAEEKLVRTILKYVEEAAK", "apparent Kd (screen)": 539}
    ]}
  ]
}
